Results from publication PMC5751283, “A Split-Luciferase Reporter Recognizing GFP and mCherry Tags to Facilitate Studies of Protein–Protein Interactions” (International Journal of Molecular Sciences, 2017).

Biological target: the molecule itself
Assay: split reporter (BiFC, NanoBiT); GFP- and/or mCherry-tagged targets expressed in Leishmania tarentolae extract (pairs co-expressed, self-associating proteins alone), serially diluted three-fold, mixed 1:1:1 with two split-nanoLuc fusions of anti-GFP or anti-mCherry nanobodies (SLN pairs GL/GS, LC/GS, CL/CS or LC/CFRS, also made in LTE); 10 min at 23 °C; buffer A (25 mM HEPES pH 7.4, 50 mM NaCl); background: …

B1: mCherry–SOX9 (natural protein, UniProt P48436 1-509, looked up)
chain: MNLLDPFMKMTDEQEKGLSGAPSPTMSEDSAGSPCPSGSGSDTENTRPQENTFPKGEPDLKKESEEDKFPVCIREAVSQVLKGYDWTLVPMPVRVNGSSKNKPHVKRPMNAFMVWAQAARRKLADQYPHLHNAELSKTLGKLWRLLNESEKRPFVEEAERLRVQHKKDHPDYKYQPRRRKSVKNGQAEAEEATEQTHISPNAIFKALQADSPHSSSGMSEVHSPGEHSGQSQGPPTPPTTPKTDVQPGKADLKREGRPLPEGGRQPPIDFRDVDIGELSSDVISNIETFDVNEFDQYLPPNGHPGVPATHGQVTYTGSYGISSTAATPASAGHVWMSKQQAPPPPPQQPPQAPPAPQAPPQPQAAPPQQPAAPPQQPQAHTLTTLSSEPGQSQRTHIKTEQLSPSHYSEQQQHSPQQIAYSPFNLPHYSPSYPPITRSQYDYTDHQNSSSYYSHAAGQGTGLYSTFTYMNPAQRPMYTPIADTSGVPSIPQTHSPQHWEQPVYTQLTRP
notes: SOX9; also called SOX9–mCherry; mCherry homodimer; source: Leishmania tarentolae cell-free extract (LTE), not purified
- signal-to-background ratio: 5
